# Test results: article PMC3900104
# B1: Myc-tagged DISC1, in COS7 [human] / FLAG-tagged TRAK1 (trafficking-protein-Kinesin-binding-1), aa 2-953, in COS7 [human] (parent)
# chain 1: MPGGGPQGAPAAAGGGGVSHRAGSRDCLPPAACFRRRRLARRPGYMRSSTGPGIGFLSPAVGTLFRFPGGVSGEESHHSESRARQCGLDSRGLLVRSPVSKSAAAPTVTSVRGTSAHFGIQLRGGTRLPDRLSWPCGPGSAGWQQEFAAMDSSETLDASWEAACSDGARRVRAAGSLPSAELSSNSCSPGCGPEVPPTPPGSHSAFTSSFSFIRLSLGSAGERGEAEGCPPSREAESHCQSPQEMGAKAASLDGPHEDPRCLSRPFSLLATRVSADLAQAARNSSRPERDMHSLPDMDPGSSSSLDPSLAGCGGDGSSGSGDAHSWDTLLRKWEPVLRDCLLRNRRQMEVISLRLKLQKLQEDAVENDDYDKAETLQQRLEDLEQEKISLHFQLPSRQPALSSFLGHLAAQVQAALRRGATQQASGDDTHTPLRMEPRLLEPTAQDSLHVSITRRDWLLQEKQQLQKEIEALQARMFVLEAKDQQLRREIEEQEQQLQWQGCDLTPLVGQLSLGQLQEVSKALQDTLASAGQIPFHAEPPETIRSLQERIKSLNLSLKEITTKVCMSEKFCSTLRKKVNDIETQLPALLEAKMHAISGNHFWTAKDLTEEIRSLTSEREGLEGLLSKLLVLSSRNVKKLGSVKEDYNRLRREVEHQETAYETSVKENTMKYMETLKNKLCSCKCPLLGKVWEADLEACRLLIQSLQLQEARGSLSVEDERQMDDLEGAAPPIPPRLHSEDKRKTPLKVLEEWKTHLIPSLHCAGGEQKEESYILSAELGEKCEDIGKKLLYLEDQLHTAIHSHDEDLIQSLRRELQMVKETLQAMILQLQPAKEAGEREAAASCMTAGVHEAQA
# chain 2: ALVFQFGQPVRAQPLPGLCHGKLIRTNACDVCNSTDLPEVEIISLLEEQLPHYKLRADTIYGYDHDDWLHTPLISPDANIDLTTEQIEETLKYFLLCAERVGQMTKTYNDIDAVTRLLEEKERDLELAARIGQSLLKKNKTLTERNELLEEQVEHIREEVSQLRHELSMKDELLQFYTSAAEESEPESVCSTPLKRNESSSSVQNYFHLDSLQKKLKDLEEENVVLRSEASQLKTETITYEEKEQQLVNDCVKELRDANVQIASISEELAKKTEDAARQQEEITHLLSQIVDLQKKAKACAVENEELVQHLGAAKDAQRQLTAELRELEDKYAECMEMLHEAQEELKNLRNKTMPNTTSRRYHSLGLFPMDSLAAEIEGTMRKELQLEEAESPDITHQKRVFETVRNINQVVKQRSLTPSPMNIPGSNQSSAMNSLLSSCVSTPRSSFYGSDIGNVVLDNKTNSIILETEAADLGNDERSKKPGTPGTPGSHDLETALRRLSLRRENYLSERRFFEEEQERKLQELAEKGELRSGSLTPTESIMSLGTHSRFSEFTGFSGMSFSSRSYLPEKLQIVKPLEGSATLHHWQQLAQPHLGGILDPRPGVVTKGFRTLDVDLDEVYCLNDFEEDDTGDHISLPRLATSTPVQHPETSAHHPGKCMSQTNSTFTFTTCRILHPSDELTRVTPSLNSAPTPACGSTSHLKSTPVATPCTPRRLSLAESFTNTRESTTTMSTSLGLVWLLKERGISAAVYDPQSWDRAGRGSLLHSYTPKMAVIPSTPPNSPMQTPTSSPPSFEFKCTSPPYDNFLASKPASSILREVREKNVRSSESQTDVSVSNLNLVDKVRRFGVAKVVNSGRAHVPTLTEEQGPLLCGPPGPAPALVPRGLVPEGLPLRCPTVTSAIGGLQLNSGIRRNRSFPTMVGSSMQMKAPVTLTSGILMGAKLSKQTSLR
# Variants of: B1
# Experiment: co-immunoprecipitation (IP with Myc antibody, WB anti-FLAG), quantified
# Settings: with FLAG-tagged TRAK1 (trafficking-protein-Kinesin-binding-1), COS7 cells, n = 3 independent transfections, parent: 100, read off a plot
row,percent of parent,Variant
1,43 % of DISC1,chain 1 R35A R36A R37A R38A R41A R42A R47A
